Experimental data as given in US20240132578A1.

What was measured:
Test in all cases: cell-based or functional assay
[1] = target: panel of 22 HIV-1 pseudoviruses of Table 52
[2] = target: HIV-1 93UG077 envelope glycoprotein (Env) on pseudovirus (HIV-1)
[3] = target: HIV-1 MGRM-A-010 envelope glycoprotein (Env) on pseudovirus (HIV-1)
[4] = target: HIV-1 92TH021 envelope glycoprotein (Env) on pseudovirus (HIV-1)
[5] = target: HIV-1 94UG103 envelope glycoprotein (Env) on pseudovirus (HIV-1)
[6] = target: HIV-1 CMU02 envelope glycoprotein (Env) on pseudovirus (HIV-1)
[7] = target: HIV-1 MGRM-C-026 envelope glycoprotein (Env) on pseudovirus (HIV-1)
[8] = target: aMLV envelope protein on pseudovirus (negative control virus)
[9] = target: HIV-1 APV6 envelope glycoprotein (Env) on pseudovirus (HIV-1)
[10] = target: HIV-1 MGRM-AG-005 envelope glycoprotein (Env) on pseudovirus (HIV-1)
[11] = target: HIV-1 92UG005 envelope glycoprotein (Env) on pseudovirus (HIV-1)
[12] = target: HIV-1 93IN905 envelope glycoprotein (Env) on pseudovirus (HIV-1)
[13] = target: HIV-1 JRCSF envelope glycoprotein (Env) on pseudovirus (HIV-1) (UniProt P20871)
[14] = target: HIV-1 APV17 envelope glycoprotein (Env) on pseudovirus (HIV-1)
[15] = target: HIV-1 MGRM-D-018 envelope glycoprotein (Env) on pseudovirus (HIV-1)
[16] = target: HIV-1 MGRM-C-028 envelope glycoprotein (Env) on pseudovirus (HIV-1)
[17] = target: HIV-1 MGRM-D-001 envelope glycoprotein (Env) on pseudovirus (HIV-1)
[18] = target: HIV-1 JRFL envelope glycoprotein (Env) on pseudovirus (HIV-1)
[19] = target: HIV-1 APV13 envelope glycoprotein (Env) on pseudovirus (HIV-1)
[20] = target: HIV-1 92UG024 envelope glycoprotein (Env) on pseudovirus (HIV-1)
[21] = target: HIV-1 NL43 envelope glycoprotein (Env) on pseudovirus (HIV-1)
[22] = target: HIV-1 MGRM-C-027 envelope glycoprotein (Env) on pseudovirus (HIV-1)
[23] = target: HIV-1 Env of isolate MGRM-C-002 (subtype C) (HIV-1)
[24] = target: HIV-1 Env of isolate MGRM-C-020 (subtype C) (HIV-1)
[25] = target: HIV-1 Env of isolate MGRM-C-008 (subtype C) (HIV-1)
[26] = target: HIV-1 Env of isolate MGRM-G-017 (subtype G), on pseudovirus (HIV-1)
[27] = target: aMLV envelope, on pseudovirus (negative control)
[28] = target: HIV-1 Env of isolate MGRM-C-025 (subtype C) (HIV-1)
[29] = target: HIV-1 Env of isolate MGRM-C-005 (subtype C) (HIV-1)
[30] = target: HIV-1 Env of isolate MGRM-G-015 (subtype G), on pseudovirus (HIV-1)
[31] = target: HIV-1 Env of isolate MGRM-G-006 (subtype G), on pseudovirus (HIV-1)
[32] = target: HIV-1 Env of isolate MGRM-G-027 (subtype G), on pseudovirus (HIV-1)
[33] = target: HIV-1 Env of isolate MGRM-G-024 (subtype G), on pseudovirus (HIV-1)
[34] = target: HIV-1 Env of isolate MGRM-C-026 (subtype C) (HIV-1)
[35] = target: HIV-1 Env of isolate MGRM-C-015 (subtype C) (HIV-1)
[36] = target: HIV-1 Env of isolate MGRM-C-019 (subtype C) (HIV-1)
[37] = target: HIV-1 Env of isolate MGRM-C-023 (subtype C) (HIV-1)
[38] = target: HIV-1 Env of isolate MGRM-G-016 (subtype G), on pseudovirus (HIV-1)
[39] = target: HIV-1 Env of isolate MGRM-C-010 (subtype C) (HIV-1)
[40] = target: HIV-1 Env of isolate 98IN022 (subtype C) (HIV-1)
[41] = target: HIV-1 Env of isolate MGRM-C-022 (subtype C) (HIV-1)
[42] = target: HIV-1 Env of isolate MGRM-G-011 (subtype G), on pseudovirus (HIV-1)
[43] = target: HIV-1 Env of isolate MGRM-G-028 (subtype G), on pseudovirus (HIV-1)
[44] = target: HIV-1 Env of isolate MGRM-C-028 (subtype C) (HIV-1)
[45] = target: HIV-1 Env of isolate MGRM-G-001 (subtype G), on pseudovirus (HIV-1)
[46] = target: HIV-1 Env of isolate MGRM-C-001 (subtype C) (HIV-1)
[47] = target: HIV-1 Env of isolate MGRM-G-013 (subtype G), on pseudovirus (HIV-1)
[48] = target: HIV-1 Env of isolate MGRM-G-025 (subtype G), on pseudovirus (HIV-1)
[49] = target: HIV-1 Env of isolate 97ZA012 (subtype C) (HIV-1)
[50] = target: HIV-1 Env of isolate MGRM-G-009 (subtype G), on pseudovirus (HIV-1)
[51] = target: HIV-1 Env of isolate MGRM-G-019 (subtype G), on pseudovirus (HIV-1)
[52] = target: HIV-1 Env of isolate MGRM-C-012 (subtype C) (HIV-1)
[53] = target: HIV-1 Env of isolate MGRM-C-013 (subtype C) (HIV-1)
[54] = target: HIV-1 Env of isolate MGRM-G-004 (subtype G), on pseudovirus (HIV-1)
[55] = target: HIV-1 Env of isolate MGRM-C-017 (subtype C) (HIV-1)
[56] = target: HIV-1 Env of isolate MGRM-G-014 (subtype G), on pseudovirus (HIV-1)
[57] = target: HIV-1 Env of isolate MGRM-C-004 (subtype C) (HIV-1)
[58] = target: HIV-1 Env of isolate 93MW959 (subtype C) (HIV-1)
[59] = target: HIV-1 Env of isolate MGRM-C-006 (subtype C) (HIV-1)
[60] = target: HIV-1 Env of isolate MGRM-C-024 (subtype C) (HIV-1)
[61] = target: HIV-1 Env of isolate MGRM-C-027 (subtype C) (HIV-1)
[62] = target: HIV-1 Env of isolate MGRM-C-009 (subtype C) (HIV-1)
[63] = target: HIV-1 Env of isolate MGRM-C-007 (subtype C) (HIV-1)
[64] = target: HIV-1 Env of isolate MGRM-C-014 (subtype C) (HIV-1)

B1: PGT-135 (5343_B08; 5344_E16) (antibody, V domains shown)
VH: QLQMQESGPGLVKPSETLSLSCTVSGDSIRGGEWGDKDYHWGWVRHSAGKGLEWIGSIHWRGTTHYKESLRRRVSMSIDTSRNWFSLRLASVTAADTAVYFCARHRHHDVFMLVPIAGWFDVWGPGVQVTVSS
VL: EIVMTQSPDTLSVSPGETVTLSCRASQNINKNLAWYQYKPGQSPRLVIFETYSKIAAFPARFVASGSGTEFTLTINNMQSEDVAVYYCQQYEEWPRTFGQGTKVDIK
[1]
  % neutralized: 54%
  median IC50, pseudovirus neutralization: 0.11 µg/mL
[2]
  IC50, pseudovirus neutralization: > 10 µg/mL
[3]
  IC50, pseudovirus neutralization: > 10 µg/mL
[4]
  IC50, pseudovirus neutralization: > 10 µg/mL
[5]
  IC50, pseudovirus neutralization: > 10 µg/mL
[6]
  IC50, pseudovirus neutralization: > 10 µg/mL
[7]
  IC50, pseudovirus neutralization: 0.0123 µg/mL
[8]
  IC50, pseudovirus neutralization: > 10 µg/mL
[9]
  IC50, pseudovirus neutralization: > 10 µg/mL
[10]
  IC50, pseudovirus neutralization: > 10 µg/mL
[11]
  IC50, pseudovirus neutralization: > 10 µg/mL
[12]
  IC50, pseudovirus neutralization: 0.0183 µg/mL
[13]
  IC50, pseudovirus neutralization: 0.113 µg/mL
[14]
  IC50, pseudovirus neutralization: > 10 µg/mL
[15]
  IC50, pseudovirus neutralization: 0.0433 µg/mL
[16]
  IC50, pseudovirus neutralization: 2.16 µg/mL
[17]
  IC50, pseudovirus neutralization: > 10 µg/mL
[18]
  IC50, pseudovirus neutralization: > 10 µg/mL
[19]
  IC50, pseudovirus neutralization: 0.545 µg/mL
[20]
  IC50, pseudovirus neutralization: 0.0139 µg/mL
[21]
  IC50, pseudovirus neutralization: 6.79 µg/mL
[22]
  IC50, pseudovirus neutralization: > 10 µg/mL

B2: PGT-136 (5329_C19; 5366_P21) (antibody, V domains shown)
VH: QLQLQESGPGLVKPSETLSLTCTVSGGSMRGTDWGENDFHYGWIRQSSAKGLEWIGSIHWRGRTTHYKTSFRSRATLSIDTSNNRFSLTFSFVTAADTAVYYCARHKYHDIFRVVPVAGWFDPWGQGLLVTVSS
VL: EIVMTQSPPTLSVSPGETATLSCRASQNVKNNLAWYQLKPGQAPRLLIFDASSRAGGIPDRFSGSGYGTDFTLTVNSVQSEDFGDYFCQQYEEWPRTFGQGTKVDIK
[1]
  % neutralized: 18%
  median IC50, pseudovirus neutralization: 0.05 µg/mL
[2]
  IC50, pseudovirus neutralization: > 10 µg/mL
[3]
  IC50, pseudovirus neutralization: > 10 µg/mL
[4]
  IC50, pseudovirus neutralization: > 10 µg/mL
[5]
  IC50, pseudovirus neutralization: > 10 µg/mL
[6]
  IC50, pseudovirus neutralization: > 10 µg/mL
[7]
  IC50, pseudovirus neutralization: 0.0065 µg/mL
[8]
  IC50, pseudovirus neutralization: > 10 µg/mL
[9]
  IC50, pseudovirus neutralization: > 10 µg/mL
[10]
  IC50, pseudovirus neutralization: > 10 µg/mL
[11]
  IC50, pseudovirus neutralization: > 10 µg/mL
[12]
  IC50, pseudovirus neutralization: 0.0135 µg/mL
[13]
  IC50, pseudovirus neutralization: > 10 µg/mL
[14]
  IC50, pseudovirus neutralization: > 10 µg/mL
[15]
  IC50, pseudovirus neutralization: > 10 µg/mL
[16]
  IC50, pseudovirus neutralization: > 10 µg/mL
[17]
  IC50, pseudovirus neutralization: > 10 µg/mL
[18]
  IC50, pseudovirus neutralization: > 10 µg/mL
[19]
  IC50, pseudovirus neutralization: > 10 µg/mL
[20]
  IC50, pseudovirus neutralization: 0.0915 µg/mL
[21]
  IC50, pseudovirus neutralization: > 10 µg/mL
[22]
  IC50, pseudovirus neutralization: > 10 µg/mL

B3: PGT-127 (antibody, V domains shown)
VH: QPQLQESGPGLVEASETLSLTCTVSGDSTGRCNYFWGWVRQPPGKGLEWIGSLSHCRSYYNTDWTYHNPSLKSRLTISLDTPKNQVFLRLTSVTAADTATYYCARFGGEVLVYRDWPKPAWVDLWGRGTLVVTVS
VL: QSALTQPPSASGSPGQSITISCTGTSNNFVSWYQQYPGKAPKLVIYEVNKRPSGVPDRFSGSKSGSTASLTVSGLQADDEGVYYCSSLVGNWDVIFGGGTKLTVL
[23]
  IC50 (µg/mL), pseudovirus neutralization: 0.057 µg/mL
[24]
  IC50 (µg/mL), pseudovirus neutralization: > 50 µg/mL
[25]
  IC50 (µg/mL), pseudovirus neutralization: > 50 µg/mL
[26]
  IC50 (µg/mL), neutralization of pseudovirus: > 50 µg/mL
[27]
  IC50 (µg/mL), neutralization of pseudovirus: > 50 µg/mL
[28]
  IC50 (µg/mL), pseudovirus neutralization: > 50 µg/mL
[29]
  IC50 (µg/mL), pseudovirus neutralization: 0.57 µg/mL
[30]
  IC50 (µg/mL), neutralization of pseudovirus: > 50 µg/mL
[31]
  IC50 (µg/mL), neutralization of pseudovirus: > 50 µg/mL
[32]
  IC50 (µg/mL), neutralization of pseudovirus: > 50 µg/mL
[33]
  IC50 (µg/mL), neutralization of pseudovirus: > 50 µg/mL
[34]
  IC50 (µg/mL), pseudovirus neutralization: 0.014 µg/mL
[35]
  IC50 (µg/mL), pseudovirus neutralization: > 50 µg/mL
[36]
  IC50 (µg/mL), pseudovirus neutralization: 0.017 µg/mL
[37]
  IC50 (µg/mL), pseudovirus neutralization: 1.08 µg/mL
[38]
  IC50 (µg/mL), neutralization of pseudovirus: > 50 µg/mL
[39]
  IC50 (µg/mL), pseudovirus neutralization: > 50 µg/mL
[40]
  IC50 (µg/mL), pseudovirus neutralization: 19.2 µg/mL
[41]
  IC50 (µg/mL), pseudovirus neutralization: 0.41 µg/mL
[42]
  IC50 (µg/mL), neutralization of pseudovirus: > 50 µg/mL
[43]
  IC50 (µg/mL), neutralization of pseudovirus: 0.032 µg/mL
[44]
  IC50 (µg/mL), pseudovirus neutralization: 7.57 µg/mL
[45]
  IC50 (µg/mL), neutralization of pseudovirus: 0.113 µg/mL
[46]
  IC50 (µg/mL), pseudovirus neutralization: > 50 µg/mL
[47]
  IC50 (µg/mL), neutralization of pseudovirus: 7.7 µg/mL
[48]
  IC50 (µg/mL), neutralization of pseudovirus: 19.3 µg/mL
[49]
  IC50 (µg/mL), pseudovirus neutralization: > 50 µg/mL
[50]
  IC50 (µg/mL), neutralization of pseudovirus: > 50 µg/mL
[51]
  IC50 (µg/mL), neutralization of pseudovirus: 0.429 µg/mL
[52]
  IC50 (µg/mL), pseudovirus neutralization: 1.07 µg/mL
[53]
  IC50 (µg/mL), pseudovirus neutralization: > 50 µg/mL
[54]
  IC50 (µg/mL), neutralization of pseudovirus: > 50 µg/mL
[55]
  IC50 (µg/mL), pseudovirus neutralization: 3.4 µg/mL
[56]
  IC50 (µg/mL), neutralization of pseudovirus: 0.009 µg/mL
[57]
  IC50 (µg/mL), pseudovirus neutralization: 0.532 µg/mL
[58]
  IC50 (µg/mL), pseudovirus neutralization: 6.95 µg/mL
[59]
  IC50 (µg/mL), pseudovirus neutralization: 0.319 µg/mL
[60]
  IC50 (µg/mL), pseudovirus neutralization: > 50 µg/mL
[61]
  IC50 (µg/mL), pseudovirus neutralization: > 50 µg/mL
[62]
  IC50 (µg/mL), pseudovirus neutralization: > 50 µg/mL
[63]
  IC50 (µg/mL), pseudovirus neutralization: > 50 µg/mL
[64]
  IC50 (µg/mL), pseudovirus neutralization: > 50 µg/mL
